Reference: publication PMC9691700, “CD147 contributes to SARS-CoV-2-induced pulmonary fibrosis” (Signal Transduction and Targeted Therapy, 2022)

Biological target: T1, His-Spike RBD (40592-V08H) (SARS-CoV-2, UniProt P0DTC2 319-541)
T1 construct: source: bought: Sino Biological
Assay: SPR; Biacore T200, CM5 sensor chip; RBD fixed to the chip by amino coupling; CD147 flowed over; binding time 90 s, dissociation time 120 s
Details: both partners purified

B1: Human His-CD147 (receptor)
chain: GTVFTTVEDLGSKILLTCSLNDSATEVTGHRWLKGGVVLKEDALPGQKTEFKVDSDDQWGEYSCVFLPEPMGTANIQLHGPPRVKAVKSSEHINEGETAMLVCKSESVPPVTDWAWYKITDSEDKALMNGSESRFFVSSSQGRSELHIENLNMEADPGQYRCNGTSSKGSDQAIITLRVRSHLAAL
notes: CD147 (basigin), human; also called human CD147; hCD147
Kd: 4.47 µM
